The series concerns the molecule itself. The series can be described thus: native gel or EMSA; lysate in non-denaturing lysis buffer (20 mM Tris-HCl, 137 mM NaCl, 10% glycerol, 1% Triton X-100, 2 mM EDTA, pH 8.0), 5 ug on a 4-15% gel run without SDS, compared with a denaturing gel; Western blot with anti-HA.

Usually stoichiometry N stands for the number of molecules, sites or subunits per partner or assembly.

B1: HA-tagged wild-type HMX1 (natural protein)
chain: not shown
notes: HMX1 (NKX5-3), wild type; also called HA-HMX1; source: HEK 293T, transfected, in lysate
For the protein B1, the “stoichiometry N” value was 2.

(Values after PMC4063770, “A Dimerized HMX1 Inhibits EPHA6/epha4b in Mouse and Zebrafish Retinas” (PLoS ONE, 2014).)
